Consider one sequence from paper PMC10638775.

The data set has as its target FGFR1 on NIH3T3 cells (mouse (NIH3T3 fibroblasts)) (UniProt P16092). The experiment in a line: flow cytometry. Particulars: SPR: Biacore T200, CM5 amine coupling, HBS running buffer (pH, salt, temperature not stated), flow cytometry: PBS, 1% BSA, 0.1% sodium azide, room temperature. (In general: A flow cytometer gives signals particle by particle.)

Sequence of FGFR1 on NIH3T3 cells (mouse (NIH3T3 fibroblasts)) (P16092 22-822): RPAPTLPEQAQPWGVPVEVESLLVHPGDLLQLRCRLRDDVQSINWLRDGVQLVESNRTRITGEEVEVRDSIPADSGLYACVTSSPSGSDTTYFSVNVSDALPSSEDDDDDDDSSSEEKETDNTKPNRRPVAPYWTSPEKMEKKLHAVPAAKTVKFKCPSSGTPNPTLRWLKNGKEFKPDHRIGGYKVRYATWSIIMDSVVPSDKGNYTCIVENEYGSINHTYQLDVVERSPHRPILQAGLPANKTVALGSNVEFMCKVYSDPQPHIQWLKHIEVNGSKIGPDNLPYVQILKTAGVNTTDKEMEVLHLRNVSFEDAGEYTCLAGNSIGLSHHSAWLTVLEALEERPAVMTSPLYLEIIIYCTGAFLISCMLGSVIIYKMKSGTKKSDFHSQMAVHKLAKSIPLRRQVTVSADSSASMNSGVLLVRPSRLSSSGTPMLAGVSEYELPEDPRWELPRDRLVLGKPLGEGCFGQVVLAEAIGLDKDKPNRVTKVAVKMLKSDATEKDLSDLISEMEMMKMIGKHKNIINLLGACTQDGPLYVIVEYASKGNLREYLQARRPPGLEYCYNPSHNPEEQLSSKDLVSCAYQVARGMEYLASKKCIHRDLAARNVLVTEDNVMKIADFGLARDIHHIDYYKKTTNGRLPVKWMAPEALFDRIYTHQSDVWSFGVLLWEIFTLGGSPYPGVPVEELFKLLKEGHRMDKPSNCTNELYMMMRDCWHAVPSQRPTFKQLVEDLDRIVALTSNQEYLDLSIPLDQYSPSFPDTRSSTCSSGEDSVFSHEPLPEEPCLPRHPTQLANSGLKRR

What is called Kd is the free concentration of one partner at which half of the binding sites on the other are occupied at equilibrium, for simple one-to-one binding. As for “GCCGCGTCTTTATGGCTGGGGATGGTGTGGGTTGCGGC [FAM-FGFR-binder]”, the Kd was 39 nM.
